Reference: PMC11963547

Target: penicillin-binding protein 2a (S. aureus (endogenous in strain USA300))
Assay: cross-linking + native gel or EMSA

“penicillin-binding protein 2a (natural protein)” showed a stoichiometry N of 3.
